{"source": "patent US11304944B2", "about": "“MetAP2 inhibitors and methods of treating obesity” (SynDevRx, Inc., priority 2013, dated 2022)", "system": "Sprague Dawley male rats", "experiment": "Tolerability of high IV doses on q7d schedule in Sprague Dawley rats", "format": "in vivo", "conditions": "100 mg/kg or 200 mg/kg IV on days 1, 8, 15, 22 and 29", "method": "Sprague Dawley male rats (N=3) nine to ten weeks old with an average weight of 300 g were ad libitum fed standard rodent diet (PharmaServ lab diet 5001). […] The rats were weighed periodically and bled on day 10, day 17, day 24. For in-life blood collections, the rats were anesthetized with an inhalation mixture of 4% Isoflurane and 1.5% oxygen, then blood was collected via retro-orbital plexus puncture at a volume of at least 1 mL. […] Within the limits of comparison to normal ranges and pre-dose data, clinical findings for albumin, albumin/globulin ratio, alkaline, phosphatase, ALT (SGPT), AST (SGOT), bicarbonate, direct bilirubin, indirect bilirubin, total bilirubin, BUN, BUN/creatinine ratio, calcium, chloride, cholesterol, CK, creatinine, globulin, glucose, phosphorus, potassium, sodium, sodium/potassium ratio, total protein were unremarkable."}
{"substance": "poly[HPMA-co-MA-GFLG-N-(trans-4-aminocyclohexyl)carbamoylfumagillol] [Compound 16]", "values": [{"measurement": "evidence of neurotoxicity (ataxis, disorientation, tremor or convulsion)", "value": "did not exhibit any evidence of neurotoxicity"}]}
